What follows are binders tested against T1, Shh receptor molecules on C3H10T1/2 cells (UniProt Q61115 1-1434) (assay: cell-based or functional assay).
T1 sequence (looked up): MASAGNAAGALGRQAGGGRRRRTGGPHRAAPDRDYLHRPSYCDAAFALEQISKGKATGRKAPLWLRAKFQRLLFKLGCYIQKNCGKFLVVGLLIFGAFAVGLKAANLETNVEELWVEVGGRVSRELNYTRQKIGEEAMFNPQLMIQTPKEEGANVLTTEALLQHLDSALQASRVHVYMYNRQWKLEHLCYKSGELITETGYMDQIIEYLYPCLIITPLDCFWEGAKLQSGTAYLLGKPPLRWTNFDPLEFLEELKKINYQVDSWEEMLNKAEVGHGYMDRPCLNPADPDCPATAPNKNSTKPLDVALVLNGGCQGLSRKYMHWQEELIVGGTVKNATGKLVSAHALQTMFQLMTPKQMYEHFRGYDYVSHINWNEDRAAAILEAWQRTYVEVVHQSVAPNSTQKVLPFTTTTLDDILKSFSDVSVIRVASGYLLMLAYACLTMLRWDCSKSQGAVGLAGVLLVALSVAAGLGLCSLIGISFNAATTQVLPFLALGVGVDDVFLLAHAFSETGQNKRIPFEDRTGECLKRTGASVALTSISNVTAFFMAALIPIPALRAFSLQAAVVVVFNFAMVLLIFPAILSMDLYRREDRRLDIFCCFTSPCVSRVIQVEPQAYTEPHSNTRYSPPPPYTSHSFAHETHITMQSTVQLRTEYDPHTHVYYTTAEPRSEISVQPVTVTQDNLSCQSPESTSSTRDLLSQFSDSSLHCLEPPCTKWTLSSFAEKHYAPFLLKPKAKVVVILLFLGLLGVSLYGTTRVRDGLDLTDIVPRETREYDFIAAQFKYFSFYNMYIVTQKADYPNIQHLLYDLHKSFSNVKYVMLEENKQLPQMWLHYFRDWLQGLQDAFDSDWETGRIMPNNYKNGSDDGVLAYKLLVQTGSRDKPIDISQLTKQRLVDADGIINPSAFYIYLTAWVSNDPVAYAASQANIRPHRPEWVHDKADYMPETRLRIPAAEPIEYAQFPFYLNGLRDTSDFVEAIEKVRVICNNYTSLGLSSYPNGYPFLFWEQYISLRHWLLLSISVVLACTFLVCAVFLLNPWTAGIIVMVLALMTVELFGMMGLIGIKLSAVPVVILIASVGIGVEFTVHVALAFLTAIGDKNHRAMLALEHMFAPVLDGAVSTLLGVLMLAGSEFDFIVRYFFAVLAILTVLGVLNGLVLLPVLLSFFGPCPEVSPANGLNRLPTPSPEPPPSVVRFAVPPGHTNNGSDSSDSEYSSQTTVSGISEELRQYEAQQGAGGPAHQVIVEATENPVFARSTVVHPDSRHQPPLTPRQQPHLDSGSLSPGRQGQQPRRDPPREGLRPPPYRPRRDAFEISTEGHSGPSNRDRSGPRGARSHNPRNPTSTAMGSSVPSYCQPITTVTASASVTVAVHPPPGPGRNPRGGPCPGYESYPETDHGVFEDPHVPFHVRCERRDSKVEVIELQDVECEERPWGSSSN

Row | Binder | Potency (IC50) in C3H10T1/2 assay (alkaline phosphatase induction) [µg/mL]
1 | mutant 19 (Shh C1II/A169C + Y57C), HPE-modified (ligand, beta-(4-hydroxyphenyl) ethylmaleimide on thiol of Cys57, Cys169) not shown | 0.3
2 | mutant 18 (Shh C1II/A169C + N46C), Pyrene-modified (ligand, N-(1-pyrenyl) maleimide on thiol of Cys46, Cys169) not shown | 0.5
3 | mutant 17 (Shh C1II/A169C + N27C), 5 K PEG (ligand, 5 K PEG maleimide on thiol of Cys27, Cys169) not shown | 4
4 | mutant 17 (Shh C1II/A169C + N27C), NEM-modified (ligand, N-ethyl maleimide on thiol of Cys27, Cys169) not shown | 0.3
5 | mutant 25 (Shh C1II/A169C + S133C), HPE-modified (ligand, beta-(4-hydroxyphenyl) ethylmaleimide on thiol of Cys133, Cys169) not shown | 0.2
6 | mutant 18 (Shh C1II/A169C + N46C), 5 K PEG (ligand, 5 K PEG maleimide on thiol of Cys46, Cys169) not shown | 0.3
7 | mutant 24 (Shh C1II/A169C + S112C), 20 K PEG (ligand, 20 K PEG maleimide on thiol of Cys112, Cys169) not shown | 2
8 | mutant 18 (Shh C1II/A169C + N46C), HPE-modified (ligand, beta-(4-hydroxyphenyl) ethylmaleimide on thiol of Cys46, Cys169) not shown | 0.4
9 | mutant 21 (Shh C1II/A169C + N92C), NEM-modified (ligand, N-ethyl maleimide on thiol of Cys92, Cys169) not shown | 2
10 | mutant 25 (Shh C1II/A169C + S133C), NEM-modified (ligand, N-ethyl maleimide on thiol of Cys133, Cys169) not shown | 0.2
11 | mutant 22 (Shh C1II/A169C + S154C), Napth-modified (ligand, N-(1-naphthyl) maleimide on thiol of Cys154, Cys169) not shown | 2
12 | mutant 19 (Shh C1II/A169C + Y57C), NEM-modified (ligand, N-ethyl maleimide on thiol of Cys57, Cys169) not shown | 0.2
13 | mutant 22 (Shh C1II/A169C + S154C), NEM-modified (ligand, N-ethyl maleimide on thiol of Cys154, Cys169) not shown | 2
14 | mutant 20 (Shh C1II/A169C + N68C), HPE-modified (ligand, beta-(4-hydroxyphenyl) ethylmaleimide on thiol of Cys68, Cys169) not shown | 0.2
15 | mutant 21 (Shh C1II/A169C + N92C), 20 K PEG (ligand, 20 K PEG maleimide on thiol of Cys92, Cys169) not shown | > 20
16 | mutant 22 (Shh C1II/A169C + S154C), 5 K PEG (ligand, 5 K PEG maleimide on thiol of Cys154, Cys169) not shown | 5
17 | mutant 24 (Shh C1II/A169C + S112C), Pyrene-modified (ligand, N-(1-pyrenyl) maleimide on thiol of Cys112, Cys169) not shown | 0.25
18 | mutant 21 (Shh C1II/A169C + N92C), unmodified (ligand) not shown | 1.5
19 | mutant 19 (Shh C1II/A169C + Y57C), 5 K PEG (ligand, 5 K PEG maleimide on thiol of Cys57, Cys169) not shown | 0.2
20 | mutant 21 (Shh C1II/A169C + N92C), 5 K PEG (ligand, 5 K PEG maleimide on thiol of Cys92, Cys169) not shown | > 20
21 | mutant 24 (Shh C1II/A169C + S112C), HPE-modified (ligand, beta-(4-hydroxyphenyl) ethylmaleimide on thiol of Cys112, Cys169) not shown | 0.2
22 | mutant 21 (Shh C1II/A169C + N92C), HPE-modified (ligand, beta-(4-hydroxyphenyl) ethylmaleimide on thiol of Cys92, Cys169) not shown | 2
23 | mutant 17 (Shh C1II/A169C + N27C), HPE-modified (ligand, beta-(4-hydroxyphenyl) ethylmaleimide on thiol of Cys27, Cys169) not shown | 0.5
24 | mutant 18 (Shh C1II/A169C + N46C), 20 K PEG (ligand, 20 K PEG maleimide on thiol of Cys46, Cys169) not shown | 0.3
25 | mutant 19 (Shh C1II/A169C + Y57C), unmodified (ligand) not shown | 0.2
26 | mutant 23 (Shh C1II/A169C + K82C), unmodified (ligand) not shown | 0.2
27 | mutant 19 (Shh C1II/A169C + Y57C), 20 K PEG (ligand, 20 K PEG maleimide on thiol of Cys57, Cys169) not shown | 0.3

Row | Binder | Potency (IC50) in C3H10T1/2 assay (alkaline phosphatase induction) [µg/mL]
28 | mutant 25 (Shh C1II/A169C + S133C), unmodified (ligand) not shown | 0.4
29 | mutant 21 (Shh C1II/A169C + N92C), Pyrene-modified (ligand, N-(1-pyrenyl) maleimide on thiol of Cys92, Cys169) not shown | 3
30 | mutant 17 (Shh C1II/A169C + N27C), Pyrene-modified (ligand, N-(1-pyrenyl) maleimide on thiol of Cys27, Cys169) not shown | 3
31 | mutant 19 (Shh C1II/A169C + Y57C), Pyrene-modified (ligand, N-(1-pyrenyl) maleimide on thiol of Cys57, Cys169) not shown | 0.3
32 | mutant 20 (Shh C1II/A169C + N68C), Napth-modified (ligand, N-(1-naphthyl) maleimide on thiol of Cys68, Cys169) not shown | 0.3
33 | mutant 24 (Shh C1II/A169C + S112C), unmodified (ligand) not shown | 0.4
34 | mutant 20 (Shh C1II/A169C + N68C), unmodified (ligand) not shown | 0.3
35 | mutant 24 (Shh C1II/A169C + S112C), 5 K PEG (ligand, 5 K PEG maleimide on thiol of Cys112, Cys169) not shown | 0.6
36 | mutant 20 (Shh C1II/A169C + N68C), NEM-modified (ligand, N-ethyl maleimide on thiol of Cys68, Cys169) not shown | 0.2
37 | mutant 22 (Shh C1II/A169C + S154C), HPE-modified (ligand, beta-(4-hydroxyphenyl) ethylmaleimide on thiol of Cys154, Cys169) not shown | 2
38 | mutant 17 (Shh C1II/A169C + N27C), Napth-modified (ligand, N-(1-naphthyl) maleimide on thiol of Cys27, Cys169) not shown | 1.5
39 | mutant 17 (Shh C1II/A169C + N27C), 20 K PEG (ligand, 20 K PEG maleimide on thiol of Cys27, Cys169) not shown | 8
40 | mutant 20 (Shh C1II/A169C + N68C), 20 K PEG (ligand, 20 K PEG maleimide on thiol of Cys68, Cys169) not shown | 0.4
41 | mutant 20 (Shh C1II/A169C + N68C), Pyrene-modified (ligand, N-(1-pyrenyl) maleimide on thiol of Cys68, Cys169) not shown | 0.3
42 | mutant 22 (Shh C1II/A169C + S154C), unmodified (ligand) not shown | 1
43 | mutant 21 (Shh C1II/A169C + N92C), Napth-modified (ligand, N-(1-naphthyl) maleimide on thiol of Cys92, Cys169) not shown | 4
44 | mutant 22 (Shh C1II/A169C + S154C), Pyrene-modified (ligand, N-(1-pyrenyl) maleimide on thiol of Cys154, Cys169) not shown | 3
45 | mutant 18 (Shh C1II/A169C + N46C), NEM-modified (ligand, N-ethyl maleimide on thiol of Cys46, Cys169) not shown | 0.2
46 | mutant 24 (Shh C1II/A169C + S112C), NEM-modified (ligand, N-ethyl maleimide on thiol of Cys112, Cys169) not shown | 0.2
47 | mutant 22 (Shh C1II/A169C + S154C), 20 K PEG (ligand, 20 K PEG maleimide on thiol of Cys154, Cys169) not shown | 8
48 | mutant 18 (Shh C1II/A169C + N46C), unmodified (ligand) not shown | 0.4
49 | mutant 19 (Shh C1II/A169C + Y57C), Napth-modified (ligand, N-(1-naphthyl) maleimide on thiol of Cys57, Cys169) not shown | 0.2
50 | mutant 24 (Shh C1II/A169C + S112C), Napth-modified (ligand, N-(1-naphthyl) maleimide on thiol of Cys112, Cys169) not shown | 0.3
51 | mutant 17 (Shh C1II/A169C + N27C), unmodified (ligand) not shown | 0.4
52 | mutant 20 (Shh C1II/A169C + N68C), 5 K PEG (ligand, 5 K PEG maleimide on thiol of Cys68, Cys169) not shown | 0.2
53 | mutant 18 (Shh C1II/A169C + N46C), Napth-modified (ligand, N-(1-naphthyl) maleimide on thiol of Cys46, Cys169) not shown | 0.4

Source: patent US20040038876A1 (published 2004)
